The labels stand for the following.
B1: GFAT-1 (human GFAT-1 isoform 2, hGFAT1) (Homo sapiens; R306H) (protein)
chain: CGIFAYLNYHVPRTRREILETLIKGLQRLEYRGYDSAGVGFDGGNDKDWEANACKIQLIKKKGKVKALDEEVHKQQDMDLDIEFDVHLGIAHTRWATHGEPSPVNSHPQRSDKNNEFIVIHNGIITNYKDLKKFLESKGYDFESETDTETIAKLVKYMYDNRESQDTSFTTLVERVIQQLEGAFALVFKSVHFPGQAVGTRRGSPLLIGVRSEHKLSTDHIPILYRTGKDKKGSCNLSRVDSTTCLFPVEEKAVEYYFASDASAVIEHTNRVIFLEDDDVAAVVDGHLSIHRIKRTAGDHPGRAVQTLQMELQQIMKGNFSSFMQKEIFEQPESVVNTMRGRVNFDDYTVNLGGLKDHIKEIQRCRRLILIACGTSYHAGVATRQVLEELTELPVMVELASDFLDRNTPVFRDDVCFFLSQSGETADTLMGLRYCKERGALTVGITNTVGSSISRETDCGVHINAGPEIGVASTKAYTSQFVSLVMFALMMCDDRISMQERRKEIMLGLKRLPDLIKEVLSMDDEIQKLATELYHQKSVLIMGRGYHYATCLEGALKIKEITYMHSEGILAGELKHGPLALVDKLMPVIMIIMRDHTYAKCQNALQQVVARQGRPVVICDKEDTETIKNTKRTIKVPHSVDCLQGILSVIPLQLLAFHLAVLRGYDVDFPRNLAKSVTVE
notes: full length, internal His6-tag between Gly299 and Asp300 (kept), expressed in Sf21 insect cells (MultiBac), Ni-NTA and SEC purified
B2: GFAT-1 (human GFAT-1 isoform 2, hGFAT1) (Homo sapiens; L508R) (protein)
chain: B1 chain with H287R, L489R
notes: as for B1
B3: GFAT-1 (human GFAT-1 isoform 2, hGFAT1) (Homo sapiens; S308D) (protein)
chain: B1 chain with H287R, S289D
notes: as for B1

Three proteins from publication PMC8041777, “Protein kinase A controls the hexosamine pathway by tuning the feedback inhibition of GFAT-1” (Nature Communications, 2021) can be followed below.

Where a chain is given by its changes, count along the chain named. Names may count otherwise.

Substrate in this data set: NC(=O)CC[C@H](N)C(=O)O
The data set is described as follows: purified protein. The data set is classed as biochemical, Homo sapiens. Conditions: 6 mM Frc6P, 1 mM APAD, 50 mM KCl, 100 mM potassium phosphate pH 7.5, 37 °C.
Turning to B1, the Michaelis constant (Km) is 1600 ± 270 µM, the catalytic constant (kcat) stood at 4.8 ± 0.26 s⁻¹ and the catalytic efficiency (kcat/Km) came out at 3000 M⁻¹ s⁻¹.

B2: the Michaelis-Menten constant (Km) was found to be 1000 ± 100 µM, the kcat is 3 ± 0.08 s⁻¹ and the kcat/Km worked out at 3000 M⁻¹ s⁻¹.

For B3, the Km was 1300 ± 230 µM, the catalytic constant (kcat) was determined as 1.5 ± 0.08 s⁻¹ and the kcat/Km is 1200 M⁻¹ s⁻¹.
